Tested on: Yarrowia lipolytica
Assay: Percent substrate conversion of desaturases and elongases expressed in Yarrowia lipolytica
Format: cell-based
Conditions: for Codon-Opt. Gene % Sub. Conv. / Native Gene % Sub. Conv.: percent substrate conversion; for Codon-Opt. Gene % Sub. Conv.: codon-optimized gene expressed in Y. lipolytica; for Native Gene % Sub. Conv.: expressed in Y. lipolytica; for percent (%) substrate conversion of the codon-optimized gene: transformants of strain Y2031, MM, 2 days
Description: The terms “conversion efficiency” and “percent substrate conversion” refer to the efficiency by which a particular enzyme (e.g., a desaturase or elongase) can convert substrate to product. The conversion efficiency is measured according to the following formula: ([product]/[substrate+product])*100, where ‘product’ includes the immediate product and all products in the pathway derived from it.
With respect to Δ12 desaturase, Applicants have made the surprising discovery that the Fusarium moniliforme Δ12 desaturase (encoded by SEQ ID NO:27) functions with greater efficiency than the native Yarrowia lipolytica Δ12 desaturase in producing 18:2 in Y. lipolytica (see WO 2005/047485). Specifically, expression of the F. moniliforme Δ12 desaturase under the control of the TEF promoter in Y. lipolytica was determined to produce higher levels of 18:2 (68% product accumulation of LA) than were previously attainable by expression of a chimeric gene encoding the Y. lipolytica Δ12 desaturase under the control of the TEF promoter (59% product accumulation of LA). This corresponds to a difference in percent substrate conversion (calculated as ([18:2+18:3]/[18:1+18:2+18:3])*100) of 85% versus 74%, respectively.
In the present invention, several desaturase and elongase genes from Table 5 were codon-optimized for expression in Yarrowia lipolytica, based on the host preferences described above. This was possible by first determining the Y. lipolytica codon usage profile (see WO 04/101757) and identifying those codons that were preferred. Then, for further optimization of gene expression in Y. lipolytica, the consensus sequence around the ‘ATG’ initiation codon was determined (i.e., ‘MAMMATGNHS’ (SEQ ID NO:356), wherein the nucleic acid degeneracy code used is as follows: M=A/C; S═C/G; H=A/C/T; and N=A/C/G/T). Table 7, below, compares the activity of native and codon-optimized genes when expressed in Y. lipolytica and provides details about each codon-optimized gene. % Sub. Conv. is the abbeviation for “percent substrate conversion” and Codon-Opt. is an abbreviation for “codon-optimized”.
Construct pDMW237 (FIG. 8C), an auto-replication plasmid comprising a chimeric FBAIN::1 g D9e::Pex20 gene, was transformed into Y. lipolytica Y2031 strain (Example 4) as described in the General Methods. Three transformants of Y2031 with pDMW237 were grown individually in MM media for two days and the cells were collected by centrifugation, lipids were extracted, and fatty acid methyl esters were prepared by trans-esterification, and subsequently analyzed with a Hewlett-Packard 6890 GC.
Construct pDMW297 was then used for transformation of strain Y2031 (Example 5) according to the General Methods. The transformant cells were plated onto MM selection media plates and maintained at 30° C. for 2 to 3 days. A total of 8 transformants grown on the MM plates were picked and re-streaked onto fresh MM plates. Once grown, these strains were individually inoculated into liquid MM at 30° C. and shaken at 250 rpm/min for 2 days. The cells were collected by centrifugation, lipids were extracted, and fatty acid methyl esters were prepared by trans-esterification, and subsequently analyzed with a Hewlett-Packard 6890 GC.

[1] = under the control of the TEF promoter in Y. lipolytica

Molecule	Codon-Opt. Gene % Sub. Conv. [%]	Native Gene % Sub. Conv. [%]	further results
T. aureum C18/20 elongase: codon-optimized gene SEQ ID NO:22 (protein, listed as Thraustochytrium aureum, misc_feature: synthetic elongase (codon-optimized)) MANSSVWDDVVGRVETGVDQWMDGAKPYALTDGLPMMDVSTMLAFEVGYMAMLLFGIPIMKQMEKPFELKTIKLLHNLFLFGLSLYMCVETIRQAILGGYKVFGNDMEKGNESHAQGMSRIVYVFYVSKAYEFLDTAIMILCKKFNQVSFLHVYHHATIFAIWWAIAKYAPGGDAYFSVILNSFVHTVMYAYYFFSSQGFGFVKPIKPYITTLQMTQFMAMLVQSLYDYLFPCDYPQALVQLLGVYMITLLALFGNFFVQSYLKKPKKSKTN	46	33	
D8SF: completely corrected synthetic codon-optimized Δ8 desaturase gene, SEQ ID NO:48 (protein, D8SF: synthetic delta-8 desaturase (codon-optimized for Yarrowia lipolytica)) MVKSKRQALPLTIDGTTYDVSAWVNFHPGGAEIIENYQGRDATDAFMVMHSQEAFDKLKRMPKINPSSELPPQAAVNEAQEDFRKLREELIATGMFDASPLWYSYKISTTLGLGVLGYFLMVQYQMYFIGAVLLGMHYQQMGWLSHDICHHQTFKNRNWNNLVGLVFGNGLQGFSVTWWKDRHNAHHSATNVQGHDPDIDNLPLLAWSEDDVTRASPISRKLIQFQQYYFLVICILLRFIWCFQSVLTVRSLKDRDNQFYRSQYKKEAIGLALHWTLKTLFHLFFMPSILTSLLVFFVSELVGGFGIAIVVFMNHYPLEKIGDSVWDGHGFSVGQIHETMNIRRGIITDWFFGGLNYQIEHHLWPTLPRHNLTAVSYQVEQLCQKHNLPYRNPLPHEGLVILLRYLAVFARMAEKQPAGKAL			percent (%) substrate conversion of the codon-optimized gene: 75%
Isochrysis galbana Δ5 desaturase: codon-optimized gene SEQ ID NO:10 (protein, listed as Isochrysis galbana, misc_feature: synthetic delta-5 desaturase (codon-optimized)) MVAGKSGAAAHVTHSSTLPREYHGATNDSRSEAADVTVSSIDAEKEMIINGRVYDVSSFVKRHPGGSVIKFQLGADASDAYNNFHVRSKKADKMLYSLPSRPAEAGYAQDDISRDFEKLRLELKEEGYFEPNLVHVSYRCVEVLAMYWAGVQLIWSGYWFLGAIVAGIAQGRCGWLQHEGGHYSLTGNIKIDRHLQMAIYGLGCGMSGCYWRNQHNKHHATPQKLGTDPDLQTMPLVAFHKIVGAKARGKGKAWLAWQAPLFFGGIICSLVSFGWQFVLHPNHALRVHNHLELAYMGLRYVLWHLAFGHLGLLSSLRLYAFYVAVGGTYIFTNFAVSHTHKDVVPPTKHISWALYSANHTTNCSDSPFVNWWMAYLNFQIEHHLFPSMPQYNHPKIAPRVRALFEKHGVEYDVRPYLECFRVTYVNLLAVGNPEHSYHEHTH	32	7	
M. alpina high affinity C18/20 elongase: GenBank AX464731; codon-optimized gene SEQ ID NO:19 (protein, listed as Mortierella alpina, misc_feature: synthetic elongase 1 (codon-optimized)) MESIAPFLPSKMPQDLFMDLASAIGVRAAPYVDPLEAALVAQAEKYIPTIVHHTRGFLVAVESPLARELPLMNPFHVLLIVLAYLVTVFVGMQIMKNFERFEVKTFSLLHNFCLVSISAYMCGGILYEAYQANYGLFENAADHTFKGLPMAKMIWLFYFSKIMEFVDTMIMVLKKNNRQISFLHVYHHSSIFTIWWLVTFVAPNGEAYFSAALNSFIHVIMYGYYFLSALGFKQVSFIKFYITRSQMTQFCMMSVQSSWDMYAMKVLGRPGYPFFITALLWFYMWTMLGLFYNFYRKNAKLAKQAKADAAKEKARKLQ	47	30	
IgD9e: synthetic codon-optimized Δ9 elongase gene, SEQ ID NO:41 (protein, IgD9e: synthetic delta-9 elongase (codon-optimized for Yarrowia lipolytica)) MALANDAGERIWAAVTDPEILIGTFSYLLLKPLLRNSGLVDEKKGAYRTSMIWYNVLLALFSALSFYVTATALGWDYGTGAWLRRQTGDTPQPLFQCPSPVWDSKLFTWTAKAFYYSKYVEYLDTAWLVLKGKRVSFLQAFHHFGAPWDVYLGIRLHNEGVWIFMFFNSFIHTIMYTYYGLTAAGYKFKAKPLITAMQICQFVGGFLLVWDYINVPCFNSDKGKLFSWAFNYAYVGSVFLLFCHFFYQDNLATKKSAKAGKQL			percent (%) substrate conversion of the codon-optimized gene: about 13%
Isochrysis galbana Δ9 elongase: codon-optimized gene SEQ ID NO:41 (protein, IgD9e: synthetic delta-9 elongase (codon-optimized for Yarrowia lipolytica)) MALANDAGERIWAAVTDPEILIGTFSYLLLKPLLRNSGLVDEKKGAYRTSMIWYNVLLALFSALSFYVTATALGWDYGTGAWLRRQTGDTPQPLFQCPSPVWDSKLFTWTAKAFYYSKYVEYLDTAWLVLKGKRVSFLQAFHHFGAPWDVYLGIRLHNEGVWIFMFFNSFIHTIMYTYYGLTAAGYKFKAKPLITAMQICQFVGGFLLVWDYINVPCFNSDKGKLFSWAFNYAYVGSVFLLFCHFFYQDNLATKKSAKAGKQL	30		
M. alpina Δ6 desaturase: GenBank AF465281; codon-optimized gene SEQ ID NO:3 (protein, listed as Mortierella alpina, misc_feature: synthetic delta-6 desaturase (codon-optimized)) MAAAPSVRTFTRAEVLNAEALNEGKKDAEAPFLMIIDNKVYDVREFVPDHPGGSVILTHVGKDGTDVFDTFHPEAAWETLANFYVGDIDESDRDIKNDDFAAEVRKLRTLFQSLGYYDSSKAYYAFKVSFNLCIWGLSTVIVAKWGQTSTLANVLSAALLGLFWQQCGWLAHDFLHHQVFQDRFWGDLFGAFLGGVCQGFSSSWWKDKHNTHHAAPNVHGEDPDIDTHPLLTWSEHALEMFSDVPDEELTRMWSRFMVLNQTWFYFPILSFARLSWCLQSILFVLPNGQAHKPSGARVPISLVEQLSLAMHWTWYLATMFLFIKDPVNMLVYFLVSQAVCGNLLAIVFSLNHNGMPVISKEEAVDMDFFTKQIITGRDVHPGLFANWFTGGLNYQIEHHLFPSMPRHNFSKIQPAVETLCKKYNVRYHTTGMIEGTAEVFSRLNEVSKATSKMGKAQ	42	30	
Y. lipolytica Δ12 desaturase: native Yarrowia lipolytica Δ12 desaturase, SEQ ID NOs:23 and 24 (protein, listed as Yarrowia lipolytica) MDSTTQTNTGTGKVAVQPPTAFIKPIEKVSEPVYDTFGNEFTPPDYSIKDILDAIPQECYKRSYVKSYSYVARDCFFIAVFAYMAYAYLPLIPSASGRAVAWAMYSIVQGLFGTGLWVLAHECGHSAFSDSNTVNNVTGWVLHSSMLVPYYAWKLTHSMHHKSTGHLTRDMVFVPKDRKEFMENRGAHDWSELAEDAPLMTLYGLITQQVFGWPLYLLSYVTGQKYPKLNKWAVNHFNPNAPLFEKKDWFNIWISNVGIGITMSVIAYSINRWGLASVTLYYLIPYLWVNHWLVAITYLQHTDPTLPHYHADQWNFTRGAAATIDREFGFIGSFCFHDIIETHVLHHYVSRIPFYNARIATEKIKKVMGKHYRHDDTNFIKSLYTVARTCQFVEGKEGIQMFRNVNGVGVAPDGLPSKK			percent substrate conversion (calculated as ([18:2+18:3]/[18:1+18:2+18:3])*100) [1]: 74%; product accumulation of LA [1]: 59%
S. diclina Δ17 desaturase: US 2003/0196217 A1; codon-optimized gene SEQ ID NO:16 (protein, listed as Saprolegnia diclina, misc_feature: synthetic delta-17 desaturase (codon-optimized)) MAEDKTKVEFPTLTELKHSIPNACFESNLGLSLYYTARAIFNASASAALLYAARSTPFIADNVLLHALVCATYIYVQGVIFWGFFTVGHDCGHSAFSRYHSVNFIIGCIMHSAILTPFESWRVTHRHHHKNTGNIDKDEIFYPHRSVKDLQDVRQWVYTLGGAWFVYLKVGYAPRTMSHFDPWDPLLLRRASAVIVSLGVWAAFFAAYAYLTYSLGFAVMGLYYYAPLFVFASFLVITTFLHHNDEATPWYGDSEWTYVKGNLSSVDRSYGAFVDNLSHHIGTHQVHHLFPIIPHYKLNEATKHFAAAYPHLVRRNDEPIITAFFKTAHLFVNYGAVPETAQIFTLKESAAAAKAKSD	45	23	

From patent US7588931B2, “High arachidonic acid producing strains of Yarrowia lipolytica” (E. I. du Pont de Nemours and Company, priority 2004, dated 2009)
